Laboratory results taken from patent US7648964B2, “Use of lacritin in promoting ocular cell survival” (University of Virginia Patent Foundation, priority 2004, dated 2010).

B1: lacritin: recombinant human lacritin from E. coli; mature 119 residue fragment (SEQ ID NO:10) of native lacritin SEQ ID NO:4 (protein, listed as Homo sapiens)
chain: EDASSDSTGADPAQEAGTSKPNEEISGPAEPASPPETTTTAQETSAAAVQGTAKVTSSRQELNPLKSIVEKSILLTEQALAKAGKGMHGGVPGGKQFIENGSEFAQKLLKKFSLLKPWA

Key:
[1] = test system: caspase-3; test: Caspase-3 activity in human corneal epithelial cells treated with TNF; format: cell-based; conditions: FIG. 11
Procedure: FIG. 11 graphically illustrates the ability of lacritin and fragments of lacritin to inhibit the ability of tumor necrosis factor (TNF) to regulate caspase-3 activity in human corneal epithelial cells. Go6976 is an inhibitor of protein kinase C. The ordinate represents relative fluorescence units. White bars indicate 3 hours and diagonally-hatched bars indicate 6 hours.
Lacritin-induced proliferation and calcium signaling was studied in the human corneal epithelial (HCE) cell line. HCE cells were grown at 37° C. in DMEM F/12 supplemented with 10% FBS and 50 μg/ml gentamicin. Each experiment was done in a dose- and time-dependent manner using TNF-α (5-20 ng/ml) and lacritin (1-10 nM). Cell viability was measured spectrophotometrically at an absorbance of 570 nm using the MTT assay. Caspase-8 activity was detected fluorometrically by measuring cleavage of the fluorogenic substrate IETD-pNA at an excitation wavelength of 405 nm. Lacritin-induced cell proliferation was studied by H3-thymidine incorporation and via fluorescence-based detection of PKC, PLC and cAMP. Calcium signaling was detected by confocal microscopy of Fluo-4 loaded cells.

[2] = test system: NFAT; test: NFAT changes by Western blotting in HSG cells; format: cell-based, human
Description: There has been more evidence regarding PKC alpha translocation and NFAT activation.

[3] = test system: human submandibular ductal ('HSG') cells; test: HSG ductal cell number in serum-free medium after four days; format: cell-based; conditions: BSA 10 ng/ml control
Procedure: FIGS. 2A and 2B represent lacritin-induced proliferation and tyrosine phosphorylation. FIG. 2A is a graphic representation of the number of human salivary gland (HSG) cells was determined four days after administering various amounts of lacritin (0 to 10 ng/ml of lacritin) to HSG cells in serum-free medium. FIG. 2B is a bar graph representing the proliferation of HSG cells upon administration of BSA (lane 1; 10 ng/ml) or serum (lane 2; 10%) was added for the same period of time. All experiments were performed on laminin-1-(0.05 μM) coated wells.
Quiescent human submandibular ductal (‘HSG’) cells were cultured in serum-free media containing increasing amounts of lacritin and cell proliferation was studied.

[4] = test system: HSG cells; test: FACS analysis of apoptosis (sub G0/G1) of HSG cells in nutrient depleted medium; format: cell-based, human
Procedure: HSG cells were cultured for different times in alpha-MEM medium, with or without lacritin (0.4 nM), then fixed with ice-old 70% ethanol and stained with propidium iodide at saturating condition, and examined by FACS. FIG. 3A is a bar graph of the resulting data plotting the number of cells entering apoptosis (the sub G0/G1 population) vs. time. After 24 hrs, cells without lacritin show very large DNA fragmentation or apoptosis. FIGS. 3B and 3C are graphic representations of flow cytometry readings showing that significant DNA fragmentation occurs in the cells cultured in the absence of lacritin (a sub G0/G1 population is indicated as a left shoulder of the large peak of FIG. 3B) but not present in FIG. 3C).
Subsequent flow cytometry (FACS) analysis was carried out to monitoring the time course of cell death and survival promotion function of lacritin. […] Lacritin protected cells from death in nutrient depleted medium (alpha MEM) up to 96 hours or longer. Cells cultured in the absence of lacritin undergo apoptosis starting at about 24 hours and over 50% cells are apoptotic after 48 hours of culture.

[5] = test system: FAS/APO-1; test: Antibody array screen, salivary ductal cells; format: cell-based, human; conditions: lacritin 10 ng/ml, 1 minute; tyrosine phosphorylation as gauge
Procedure: (§1) Lacritin's function in cell survival was first assessed in an antibody array screen. Serum-free cultures of salivary ductal cells were treated either with recombinant lacritin at 10 ng/ml or an equal volume of 1×PBS (dialysis medium for recombinant lacritin) for 1 minute.

[6] = test system: bcl-2; test: Antibody array screen, salivary ductal cells; format: cell-based, human; conditions: lacritin 10 ng/ml, 1 minute; tyrosine phosphorylation as gauge
Procedure: as §1

[7] = test system: human corneal epithelial cells; test: Calcium signaling in human corneal epithelial cells (Fluo-3AM); format: cell-based; conditions: HCE cells
Procedure: Freshly isolated rat lacrimal acinar cells, and HSG (human salivary gland) ductal and HCE (human corneal epithelial) cell lines were used to study lacritin function. For secretion studies, rat acinar cells were plated serum-free overnight on wells co-coated with 0.05 μM laminin 1 (to ensure adhesion) and 0 to 20 μM lacritin, or alternatively with laminin-1 (0.05 μM) and treated the next day with serum-free medium containing 0 to 162 ng/ml of soluble lacritin for four hours. Unstimulated and stimulated (carbachol 10^−4 M/VIP 10^−8 M) secretions were then collected, assessed (peroxidase assay) and normalized to μg cellular DNA. To study tyrosine phosphorylation, overnight serum-free cultures of both rat lacrimal acinar and HSG cells were washed and treated with 10 ng/ml of soluble lacritin for 0.5, 2.5, 10, and 30 minutes. Py(20) anti-phosphotyrosine antibody immunoprecipitation of cell lysates was then examined in Western blots of 7% SDS PAGE gels using Py(20) and ECL for detection. […] Using an inverted Zeiss 510 LSM for visualization, 50 second baseline images were first recorded. While the laser was running, lacritin was added (final concentration 4 and 40 ng/ml) and the response continually monitored every 786 msec for a minimum of 200 sec.

Molecule	protection from cell death by TNF (caspase-3 activity) [1]	effect on lacritin-induced changes of NFAT [2]	ductal cell number relative to BSA negative control [3]	DNA fragmentation ([4]; lacritin 10 ng/ml, alpha MEM)	duration of protection from death ([4]; nutrient depleted medium (alpha MEM)) [h]	change in FAS/APO-1 levels [5] [%]	increase in bcl-2 tyrosine phosphorylation [6] [%]	rapidity of lacritin-dependent calcium mobilization [7] [s]	calcium signals ([7]; serum-free)
Cn1c2ccccc2c2c3c(c4c5ccccc5n(CCC#N)c4c21)CNC3=O [Go 6976]	do not protect	abolish changes of NFAT							
B1			more than twofold	no noticeable DNA fragmentation	≥ 96	−81	11	20 to 30	rapid and sustained calcium waves
